{"source": "patent US5098841A", "about": "“Process for the preparation of hydroxy acids” (CIBA-GEIGY Corporation, priority 1988, dated 1992)", "key": {"[1]": {"assay": "Specific activity of commercially available dehydrogenases based on pyruvate", "format": "biochemical", "details": "substrate pyruvate", "from_the_text": "(§1) The continuous reaction method, especially in an enzyme membrane reactor, is preferred for both processes.\n(§2) U--unit of enzyme activity (under defined reaction conditions, 1 U produces a substance conversion of 1 μmol/min)"}, "[2]": {"assay": "Specific activity of commercially available dehydrogenases based on 2-keto-4-phenylbutyric acid", "format": "biochemical", "details": "substrate 2-keto-4-phenylbutyric acid", "from_the_text": "as §1, §2"}}, "data": [{"substance": "L-LDH bovine heart Fluka 61310: commercially available L-lactate dehydrogenase from bovine heart, Fluka 61310", "values": [{"measurement": "U/mg protein based on pyruvate", "setting": "[1]", "value": 300, "unit": "U/mg protein"}, {"measurement": "U/mg protein based on 2-keto-4-phenylbutyric acid", "setting": "[2]", "value": 0.07, "unit": "U/mg protein"}]}]}
